Here are results for 4 substances from PMC5025654.

The target of test [1] is TGF-β1 of the porcine enamel matrix (porcine (endogenous in porcine enamel)).
Test [2] has the same target. Briefly: dynamic light scattering; multi-angle DLS, 25.0 °C, Tris; original (TGF-β1-bound) P103 amelogenin at c > 6.0 mg mL^-1 (Line 1), D extrapolated to D0; RH 3.21 nm, Mw from an empirical RH-Mw relation; complex formed in vivo.
Test [3] concerns the target P103 amelogenin (porcine). Briefly: dynamic light scattering; multi-angle DLS, 25.0 °C, Tris; D extrapolated to zero concentration (D0), RH by Stokes-Einstein, Mw from an empirical RH-Mw relation; P103-1 and P103-2 amelogenins and original P103 amelogenin at c < 4.0 mg mL^-1; RH 2.57 nm.
Test [4] deals with TGF-β1 of the porcine enamel matrix (porcine (endogenous in porcine enamel)). In words: co-elution on RP-HPLC, TGF-β1 quantified by ALP-inducing activity of HPDL cells; amelogenins as purified from enamel (before the in vitro binding); ng of TGF-β1 per mg of amelogenin calculated from standard CF-hTGF-β1 (0.3 ng mL^-1), after dilution correction; complexes formed in vivo.
The target of test [5] is carrier-free recombinant human TGF-β1 (human). In words: in vitro binding, RP-HPLC, TGF-β1 quantified by ALP-inducing activity of HPDL cells; purified amelogenin mixed with CF-hTGF-β1 or rh-latent TGF-β1, fractions from RP-HPLC tested in the ALP-HPDL system; ng per mg of amelogenin calculated from standard CF-hTGF-β1 (0.3 ng mL^-1), after dilution correction; details in the Supplementary Methods.

Test [6] concerns the target TGFBR1 of porcine enamel organ epithelia (porcine (endogenous in enamel organ epithelia)) (UniProt Q5CD18).

Sequence of TGF-β1 of the porcine enamel matrix (porcine (endogenous in porcine enamel)) (P07200 30-390): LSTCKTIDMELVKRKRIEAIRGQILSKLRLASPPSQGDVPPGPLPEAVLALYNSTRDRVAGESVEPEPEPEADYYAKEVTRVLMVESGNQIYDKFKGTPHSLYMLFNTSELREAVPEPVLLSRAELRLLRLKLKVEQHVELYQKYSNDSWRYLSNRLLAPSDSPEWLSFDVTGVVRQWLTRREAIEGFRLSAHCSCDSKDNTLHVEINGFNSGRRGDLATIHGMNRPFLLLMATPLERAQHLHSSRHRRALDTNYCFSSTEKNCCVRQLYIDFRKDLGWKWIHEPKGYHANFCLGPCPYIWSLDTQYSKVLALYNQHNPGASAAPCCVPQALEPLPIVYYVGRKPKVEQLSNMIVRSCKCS
Sequence of P103 amelogenin-TGF-β1 complex (P07200 whole entry, looked up, one chain of several): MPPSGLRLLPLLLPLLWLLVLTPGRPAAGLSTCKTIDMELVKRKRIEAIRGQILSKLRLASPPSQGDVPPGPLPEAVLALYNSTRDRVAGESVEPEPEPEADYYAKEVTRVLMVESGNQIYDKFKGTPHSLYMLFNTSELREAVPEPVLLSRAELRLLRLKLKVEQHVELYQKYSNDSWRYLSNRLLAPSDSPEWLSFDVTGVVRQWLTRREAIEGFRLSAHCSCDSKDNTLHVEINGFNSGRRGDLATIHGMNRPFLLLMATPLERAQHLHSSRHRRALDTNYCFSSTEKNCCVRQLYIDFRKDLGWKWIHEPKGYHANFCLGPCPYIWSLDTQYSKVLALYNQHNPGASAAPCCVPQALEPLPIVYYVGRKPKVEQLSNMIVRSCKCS
Sequence of TGFBR1 of porcine enamel organ epithelia (porcine (endogenous in enamel organ epithelia)) (Q5CD18 30-503): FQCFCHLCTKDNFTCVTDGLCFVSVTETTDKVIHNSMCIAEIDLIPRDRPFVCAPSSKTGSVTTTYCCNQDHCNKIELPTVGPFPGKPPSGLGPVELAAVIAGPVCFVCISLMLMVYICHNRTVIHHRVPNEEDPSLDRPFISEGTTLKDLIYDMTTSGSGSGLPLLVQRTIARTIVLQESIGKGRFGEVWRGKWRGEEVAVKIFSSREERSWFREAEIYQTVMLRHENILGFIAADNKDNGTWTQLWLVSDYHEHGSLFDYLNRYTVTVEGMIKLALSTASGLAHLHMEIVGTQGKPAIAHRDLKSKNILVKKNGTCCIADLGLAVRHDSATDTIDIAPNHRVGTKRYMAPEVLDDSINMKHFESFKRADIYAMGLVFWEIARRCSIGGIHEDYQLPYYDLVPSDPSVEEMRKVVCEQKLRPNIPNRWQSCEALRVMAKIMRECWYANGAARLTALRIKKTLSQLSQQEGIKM

With P103 amelogenin (domain or fragment), the ALP-inducing activity of HPDL cells left after digestion of the P103 amelogenin-TGF-β1 complex with pKLK4 for 20 h, compared to the level before digestion (CF-hTGF-β1 alone: 8%) in test [1] came out at 70%. Moreover, in test [2], the stoichiometry N (amelogenin trimer per TGF-β homodimer) is 1. For the same substance, the stoichiometry N in test [3] is 3. The original TGF-β1, ng against 1 mg of amelogenin in test [4] is 0.797 ng. Moreover, the bound TGF-β1, ng against 1 mg of amelogenin in test [5] is 1.08 ng.

“P103 amelogenin-TGF-β1 complex (from UniProt P07200 279-390)” showed a TR-FRET TGFBR1 kinase assay (phosphorylation of ULight-Topo IIα peptide, 5 mM ATP), FRET signal after 12 h with the complex added, against the control without addition (% higher than the control) in test [6] of 5.

In the case of P148 amelogenin (domain or fragment), in test [4], the original TGF-β1, ng against 1 mg of amelogenin was 0.263 ng. Besides, in test [5], the bound TGF-β1, ng against 1 mg of amelogenin is 1.06 ng.

As for P162 amelogenin (domain or fragment), in test [4], the original TGF-β1, ng against 1 mg of amelogenin was 0.201 ng. Further, the bound TGF-β1, ng against 1 mg of amelogenin in test [5] is 1.17 ng.

In general, stoichiometry N refers to a count of units in the complex or per binding partner.
